T1: Mouse RON on cells (3T3-mRON cells; mouse colon and skin) (mouse, UniProt Q62190 24-1378)
T1 sequence: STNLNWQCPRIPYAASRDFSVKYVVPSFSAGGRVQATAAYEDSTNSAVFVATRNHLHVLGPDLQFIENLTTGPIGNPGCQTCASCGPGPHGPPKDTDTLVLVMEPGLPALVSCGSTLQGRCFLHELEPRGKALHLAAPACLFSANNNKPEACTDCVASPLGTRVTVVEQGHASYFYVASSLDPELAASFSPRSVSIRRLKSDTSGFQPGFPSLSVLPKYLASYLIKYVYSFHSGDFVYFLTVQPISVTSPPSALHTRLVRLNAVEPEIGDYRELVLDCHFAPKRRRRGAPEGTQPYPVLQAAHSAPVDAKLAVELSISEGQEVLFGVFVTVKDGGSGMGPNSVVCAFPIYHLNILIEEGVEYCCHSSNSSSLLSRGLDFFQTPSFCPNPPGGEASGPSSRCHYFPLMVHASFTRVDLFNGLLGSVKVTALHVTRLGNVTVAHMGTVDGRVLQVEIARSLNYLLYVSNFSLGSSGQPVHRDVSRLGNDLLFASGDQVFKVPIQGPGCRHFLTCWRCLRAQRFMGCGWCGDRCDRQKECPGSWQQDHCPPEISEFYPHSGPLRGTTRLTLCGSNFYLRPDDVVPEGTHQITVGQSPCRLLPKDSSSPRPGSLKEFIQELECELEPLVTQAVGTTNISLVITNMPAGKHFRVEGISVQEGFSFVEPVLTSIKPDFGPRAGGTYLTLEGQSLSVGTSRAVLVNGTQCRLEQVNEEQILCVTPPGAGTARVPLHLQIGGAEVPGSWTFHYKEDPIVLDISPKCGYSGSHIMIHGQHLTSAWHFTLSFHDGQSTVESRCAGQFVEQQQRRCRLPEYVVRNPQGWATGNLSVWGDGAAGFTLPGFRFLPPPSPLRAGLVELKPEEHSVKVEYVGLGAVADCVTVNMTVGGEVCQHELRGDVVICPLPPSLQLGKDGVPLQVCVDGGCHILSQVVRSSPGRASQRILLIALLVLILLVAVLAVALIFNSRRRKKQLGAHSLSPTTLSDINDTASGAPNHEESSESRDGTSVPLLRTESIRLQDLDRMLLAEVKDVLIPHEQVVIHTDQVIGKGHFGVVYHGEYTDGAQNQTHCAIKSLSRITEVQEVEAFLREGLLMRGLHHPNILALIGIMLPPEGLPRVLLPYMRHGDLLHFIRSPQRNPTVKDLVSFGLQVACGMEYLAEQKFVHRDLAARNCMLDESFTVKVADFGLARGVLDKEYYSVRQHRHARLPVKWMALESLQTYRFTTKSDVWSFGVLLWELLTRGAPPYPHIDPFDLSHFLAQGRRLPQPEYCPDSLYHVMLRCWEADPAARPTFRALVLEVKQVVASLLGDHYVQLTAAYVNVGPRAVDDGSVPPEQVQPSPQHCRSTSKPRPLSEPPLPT

B1: Mouse MSP β-L8-mIgG2a Fc (Fc fusion)
chain: VVGGHPGNSPWTVSLRNRQGQHFCGGSLVKEQWVLTARQCIWSCHEPLTGYEVWLGTINQNPQPGEANLQRVPVAKAVCGPAGSQLVLLKLERPVILNHHVALIALPPEQYVVPPGTKCEIAGWGESIGTSNNTVLHVASMNVISNQECNTKYRGHIQESEICTQGLVVPVGACEGDYGGPLACYTHDAWVLQGLIIPNRVCARPRWPAIFTRVSVFVDWINKVMQLEPRGPTIKPCPPCKCPAPNLLGGPSVFIFPPKIKDVLMISLSPIVTCVVVDVSEDDPDVQISWFVNNVEVHTAQTQTHREDYNSTLRVVSALPIQHQDWMSGKEFKCKVNNKDLPAPIERTISKPKGSVRAPQVYVLPPPEEEMTKKQVTLTCMVTDFMPEDIYVEWTNNGKTELNYKNTEPVLDSDGSYFMYSKLRVEKKNWVERNSYSCSVVHEGLHNHHTTKSFSRTPGK
notes: also called m8m
B2: Mouse MSP β-L12-mIgG2a Fc (Fc fusion)
chain: VVGGHPGNSPWTVSLRNRQGQHFCGGSLVKEQWVLTARQCIWSCHEPLTGYEVWLGTINQNPQPGEANLQRVPVAKAVCGPAGSQLVLLKLERPVILNHHVALIALPPEQYVVPPGTKCEIAGWGESIGTSNNTVLHVASMNVISNQECNTKYRGHIQESEICTQGLVVPVGACEGDYGGPLACYTHDAWVLQGLIIPNRVCARPRWPAIFTRVSVFVDWINKVMQLEKKIEPRGPTIKPCPPCKCPAPNLLGGPSVFIFPPKIKDVLMISLSPIVTCVVVDVSEDDPDVQISWFVNNVEVHTAQTQTHREDYNSTLRVVSALPIQHQDWMSGKEFKCKVNNKDLPAPIERTISKPKGSVRAPQVYVLPPPEEEMTKKQVTLTCMVTDFMPEDIYVEWTNNGKTELNYKNTEPVLDSDGSYFMYSKLRVEKKNWVERNSYSCSVVHEGLHNHHTTKSFSRTPGK
notes: also called m12m; mMSPβ-L12-mIgG2a
B3: Mouse MSP β-L4-mIgG2a Fc (Fc fusion)
chain: VVGGHPGNSPWTVSLRNRQGQHFCGGSLVKEQWVLTARQCIWSCHEPLTGYEVWLGTINQNPQPGEANLQRVPVAKAVCGPAGSQLVLLKLERPVILNHHVALIALPPEQYVVPPGTKCEIAGWGESIGTSNNTVLHVASMNVISNQECNTKYRGHIQESEICTQGLVVPVGACEGDYGGPLACYTHDAWVLQGLIIPNRVCARPRWPAIFTRVSVFVDWINKVMQLETIKPCPPCKCPAPNLLGGPSVFIFPPKIKDVLMISLSPIVTCVVVDVSEDDPDVQISWFVNNVEVHTAQTQTHREDYNSTLRVVSALPIQHQDWMSGKEFKCKVNNKDLPAPIERTISKPKGSVRAPQVYVLPPPEEEMTKKQVTLTCMVTDFMPEDIYVEWTNNGKTELNYKNTEPVLDSDGSYFMYSKLRVEKKNWVERNSYSCSVVHEGLHNHHTTKSFSRTPGK
notes: also called m4m
B4: Human MSP β 689R (HGF leader + V484-G711 + C588S + C672A + His tag) (ligand)
chain: VVGGHPGNSPWTVSLRNRQGQHFCGGSLVKEQWILTARQCFSSCHMPLTGYEVWLGTLFQNPQHGEPSLQRVPVAKMVCGPSGSQLVLLKLERSVTLNQRVALISLPPEWYVVPPGTKCEIAGWGETKGTGNDTVLNVALLNVISNQECNIKHRGRVRESEMCTEGLLAPVGACEGDYGGPLACFTHNAWVLEGIIIPNRVCARSRWPAVFTRVSVFVDWIHKVMRLGHHHHHH
notes: This is an inference
B5: Mouse MSP β-L16-mIgG2a Fc (Fc fusion)
chain: VVGGHPGNSPWTVSLRNRQGQHFCGGSLVKEQWVLTARQCIWSCHEPLTGYEVWLGTINQNPQPGEANLQRVPVAKAVCGPAGSQLVLLKLERPVILNHHVALIALPPEQYVVPPGTKCEIAGWGESIGTSNNTVLHVASMNVISNQECNTKYRGHIQESEICTQGLVVPVGACEGDYGGPLACYTHDAWVLQGLIIPNRVCARPRWPAIFTRVSVFVDWINKVMQLEQVTDKKIEPRGPTIKPCPPCKCPAPNLLGGPSVFIFPPKIKDVLMISLSPIVTCVVVDVSEDDPDVQISWFVNNVEVHTAQTQTHREDYNSTLRVVSALPIQHQDWMSGKEFKCKVNNKDLPAPIERTISKPKGSVRAPQVYVLPPPEEEMTKKQVTLTCMVTDFMPEDIYVEWTNNGKTELNYKNTEPVLDSDGSYFMYSKLRVEKKNWVERNSYSCSVVHEGLHNHHTTKSFSRTPGK
notes: also called m16m
B6: Hexahistidine-tagged murine MSP β (HGF leader + V489-E716 + C593A + C677A + His tag) (ligand)
chain: VVGGHPGNSPWTVSLRNRQGQHFCGGSLVKEQWVLTARQCIWSCHEPLTGYEVWLGTINQNPQPGEANLQRVPVAKAVCGPAGSQLVLLKLERPVILNHHVALIALPPEQYVVPPGTKCEIAGWGESIGTSNNTVLHVASMNVISNQECNTKYRGHIQESEICTQGLVVPVGACEGDYGGPLACYTHDAWVLQGLIIPNRVCARPRWPAIFTRVSVFVDWINKVMLEHHHHHHH
notes: also called Mouse MSP β

Key:
[1] = molecular target: T1, Mouse RON on cells (3T3-mRON cells; …); assay: cell-based or functional assay
[2] = molecular target: T1, Mouse RON on cells (3T3-mRON cells; …); assay: flow cytometry on 3T3-mRON cells
[3] = molecular target: T2, Mouse RON-hIgG1 Fc (murine RON Sema/PSI/IPT1, natural leader + R33-V684, fused to human IgG1 Fc) (mouse); assay: SPR (Biacore), anti-Fc chip; legend names murine RON-Fc; the sheet's scheme ('RON or MSP' over 'MSP-Fc or RON-Fc') and have the MSPβ-Fc fusion captured and soluble RON-His injected
T2 construct: also called mRON-hFc; murine RON-Fc
Procedure: (§1) Binding kinetics of RON to MSP β-Fc fusion proteins and MSP proteins to RON-Fc fusions were determined using a Biacore 3000 optical biosensor equipped with a research-grade CM5 sensor chip (GE Healthcare). Amine coupling reagents, N-ethyl-N′-dimethylamino-propylcarbodiimide (EDC), N-hydroxy-succinimide (NHS) and sodium ethanolamine HCl, pH 8.5, were obtained from GE Healthcare. Standard coupling protocols were used to tether a rabbit anti-human IgG1 or rabbit anti-murine IgG2a (Jackson ImmunoResearch Laboratories) onto the biosensor surface. A biosensor chip that was subjected to the amine coupling procedure with no protein coupled was used to correct for non-specific binding. […] Various concentrations (500-3.9 nM, 2-fold dilution series) of RON-His, were injected in HBS-P buffer (10 mM HEPES, pH 7.5, 150 mM NaCl, 0.005% P20) at 25° C. with a flow rate of 30 μL/min and dissociation monitored for 240 sec. Between measurements, the biosensor surfaces were regenerated with a 120 s pulse of 10 mM glycine-HCl pH 1.5 followed by a 120 s wash with running buffer.

[4] = molecular target: T2, Mouse RON-hIgG1 Fc (murine RON …); assay: SPR (Biacore), anti-Fc chip, murine RON-Fc captured and MSP protein injected; table headed 'Similar High Affinities for Murine RON'
Procedure: as §1
To function as a RON agonist, MSPβ-IgG2a fusion proteins must bind the RON receptor. To assay binding, surface plasmon resonance was used to measure the affinity of full-length human MSP, human and mouse MSP β, and a number of human and mouse MSPβ-IgG2a fusions for immobilized RON receptor. […]

[5] = molecular target: T3, Human RON-hIgG1 Fc (RON Sema/PSI/IPT1 fused to human IgG1 Fc) (human); assay: BLI using RON-Fc at 30 C
T3 construct: also called RON-Fc; hRON-Fc
Procedure: Real-time kinetic measurements of MSP binding to RON were conducted using an Octet RED384 (ForteBio, Inc). Samples or buffer were dispensed into 96-well microtiter plates (Greiner Bio-One North America, Inc.) at a volume of 200 μl per well. Anti-human IgG Fc Biosensors were used for the experiments. Each experiment consisted of three steps: incubation with ForteBio Kinetic buffer diluted 1:10 in PBS assay buffer to establish an equilibrium for 120 s (baseline), incubation with 10 μg/ml RON-Fc in assay buffer to coat the biosensor with binding target for 900 s (load), incubation with MSP, MSP β or scMSP in assay buffer containing various concentrations (75-4.7 nM, 2-fold dilution series) for 400 s (association), and incubation with assay buffer to measure the off-rate of MSP for 400 s (dissociation). Operating temperature was maintained at 30° C. Data were generated automatically by the Octet Data Acquisition 7.0 software. Each data set was fitted globally to a simple one-to-one binding model using ForteBio Analysis Software 7.0 to determine the kinetic parameters kₐ and kd. The equilibrium dissociation constants (KD) were then calculated as a ratio (koff/kₒₙ) of these rate constants.

[6] = molecular target: T3, Human RON-hIgG1 Fc (RON Sema/PSI/IPT1 …); assay: SPR capturing RON-Fc at 25 C
Procedure: To determine MSP protein binding kinetics to hRON-Fc or mRON-Fc fusion proteins, between 50 and 100 response units (RU) were captured on each of three immobilized anti-human Fc surfaces. Various concentrations (50-0.78 nM, 2-fold dilution series) of MSP, MSP β, MSP α or scMSP were injected in HBS-P buffer (10 mM HEPES, pH 7.5, 150 mM NaCl, 0.005% P20) at 25° C. with a flow rate of 30 μL/min and dissociation monitored for 4 min. Between measurements, the biosensor surfaces were regenerated with a 2 min pulse of 10 mM glycine-HCl pH 1.5.

[7] = molecular target: T4, Recombinant human RON Sema/PSI (residues E25-P568) with C-terminal His-tag (human, UniProt Q04912 25-568); assay: SPR using immobilized RON Sema/PSI at 25 C
T4 construct: Made in Trichoplusia ni insect cells

T3 sequence (chain, as listed by the source limits assumed): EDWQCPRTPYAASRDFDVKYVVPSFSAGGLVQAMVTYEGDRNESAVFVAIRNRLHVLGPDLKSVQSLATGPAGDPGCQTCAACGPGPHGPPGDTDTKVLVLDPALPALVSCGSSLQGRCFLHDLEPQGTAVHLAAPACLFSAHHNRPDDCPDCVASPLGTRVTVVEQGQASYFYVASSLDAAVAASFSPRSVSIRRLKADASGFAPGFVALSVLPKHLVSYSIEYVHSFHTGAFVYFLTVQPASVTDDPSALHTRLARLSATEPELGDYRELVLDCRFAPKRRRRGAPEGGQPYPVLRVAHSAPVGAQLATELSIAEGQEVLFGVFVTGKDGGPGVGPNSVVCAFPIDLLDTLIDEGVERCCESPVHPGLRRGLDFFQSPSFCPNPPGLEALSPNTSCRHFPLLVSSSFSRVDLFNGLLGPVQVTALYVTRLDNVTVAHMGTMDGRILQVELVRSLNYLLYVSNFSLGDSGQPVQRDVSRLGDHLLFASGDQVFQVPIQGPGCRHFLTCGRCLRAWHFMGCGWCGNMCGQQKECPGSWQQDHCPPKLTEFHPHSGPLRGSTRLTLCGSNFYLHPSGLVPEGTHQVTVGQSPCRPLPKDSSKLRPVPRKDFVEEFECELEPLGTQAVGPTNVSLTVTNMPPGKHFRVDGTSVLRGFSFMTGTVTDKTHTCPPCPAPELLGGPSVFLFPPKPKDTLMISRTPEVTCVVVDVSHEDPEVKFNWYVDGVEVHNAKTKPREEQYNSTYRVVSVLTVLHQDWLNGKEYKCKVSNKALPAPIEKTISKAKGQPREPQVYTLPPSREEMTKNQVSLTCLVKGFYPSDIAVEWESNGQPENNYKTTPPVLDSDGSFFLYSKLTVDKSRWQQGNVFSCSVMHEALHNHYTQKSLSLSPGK

| Binder | fold increase in Akt phosphorylation, MSD, colon of injected mice [1] | EC50 (read off the curve) [2] | Kd [3] | Kd [4] | also measured |
| --- | --- | --- | --- | --- | --- |
| B1 | ~2 fold | ~0.05 µg/mL | 8.5 nM | – | – |
| B2 | ~2.3 fold | ~0.05 µg/mL | 10.4 nM | – | – |
| B3 | ~2.6 fold | – | 8.3 nM | – | – |
| B4 | – | – | – | 5.1 nM | Kd [5]: 7.5 nM; koff [5]: 0.0025 s⁻¹; kon [5]: 388000 M⁻¹ s⁻¹; Kd [6]: 9.6 nM; koff [6]: 0.0275 s⁻¹; kon [6]: 3.53e+06 M⁻¹ s⁻¹; Kd [7]: 6.6 nM; koff [7]: 0.0159 s⁻¹; kon [7]: 2.45e+06 M⁻¹ s⁻¹ |
| B5 | ~2.5 fold | ~0.05 µg/mL | 8.4 nM | – | – |
| B6 | – | – | – | 6.4 nM | – |

Source: patent publication US20160032013A1 (Genentech, published 2016)
